The values that follow come from patent US20230242671A1 (Eli Lilly, published 2023).

One test concerns the target T1, human PD-1-ECD (human, UniProt Q15116 25-170).
T1 construct: extracellular domain
Kind of test: ELISA, antibody at 1 µg/mL captured by anti-human-Fc, antigen titrated. How it is done:
(§1) Binding affinity of exemplified multispecific binding proteins provided herein is assessed via ELISA. Briefly, 384-well flat bottom Elisa plates are coated with 1 ug/mL anti-human-Fc protein at 20 ul/well and incubated overnight at 4° C. The following day, plates are washed 3× with wash buffer (0.05% PBS-Tween 20) and blocked for 1 hr with blocking buffer (casein, 60 μL/well) at room temperature (RT). Plates are washed 3× with wash buffer, and binding proteins as shown in Table 10 are added at 1 μg/mL in triplicates at 20 uL/well in DPBS (Dulbecco's HyClone). Plates are incubated at RT for 1 hr, washed 3× with wash buffer, and titrated antigens are added at 20 ul/well and incubated for 60 min at RT. Plates are washed 3×, and 20 uL/well NAAP substrate is added and incubated for 20 min. Plates are washed 3×, and PNPP substrate is added at 20 uL/well, and reactions are stopped, and optical density is measured using a colorimetric microplate reader set to 405 nm.

The target of another test is T2, human TIGIT-ECD (human, UniProt Q495A1 22-141).
T2 construct: extracellular domain
T2 sequence (looked up): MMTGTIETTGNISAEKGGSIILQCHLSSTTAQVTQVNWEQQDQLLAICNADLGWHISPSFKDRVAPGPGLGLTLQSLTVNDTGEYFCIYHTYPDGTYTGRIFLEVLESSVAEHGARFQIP
The description is as above. How it is done:
as §1

The target in test [1] is T3, CaptureSelect Kappa XL ligand.
T3 construct: also called Biotin-KappaXL; Kappa XL column
Kind of test: CaptureSelect Kappa XL affinity column after Protein A. An excerpt:
Multispecific binding proteins of the present disclosure, in clarified medium or recovered from Protein A purification, may be subjected to a second purification step using a CaptureSelect™ Kappa XL (Thermo Fisher Cat. #494321001) pre-packed affinity column. Briefly, multispecific binding proteins of the present disclosure recovered from Protein A purification are subjected to a Kappa XL affinity column which has been equilibrated with a compatible buffer, such as phosphate buffered saline (PBS) at pH 7.4. The column is then washed to remove nonspecific binding components. The bound multispecific binding protein is eluted, for example, by pH gradient (such as 20 mM Tris buffer pH 7.0 to 10 mM sodium citrate buffer pH 3.0). Binding protein fractions are detected, such as by UV absorbance or SDS-PAGE, and then are pooled.
Percent flow through (% F T) and percent elution of exemplified heteromabs of the present disclosure following kappa XL column purification essentially as described herein is assessed. Briefly, various antibody formats (as set forth in Table 3) are subjected to Kappa XL column. Flow through material is considered to comprise of impurities, such as homodimers, or misassembled antibodies, whereas the Kappa XL ligand bound material (elution material) is considered to be the correctly assembled bispecific antibody.

Test [2] has as its target T4, Protein A (UniProt P38507 37-327, biotin (site not stated)).
T4 construct: Reagent; also called Biotin-Protein A; Protein A ligand
Kind of test: ELISA, Biotin-Protein A. How it is done:
(§2) Binding of the heavy chain Fc region formats of Table 1b for exemplified IgG heteromabs to Protein A ligand may be assessed via ELISA. Briefly, 96-well flat bottom Elisa plates are coated with 2 ug/mL goat anti-human-kappa protein at 100 ul/well and incubated overnight at 4° C. The following day, plates are washed 3× with wash buffer 0.05% PBS-Tween 20 (PBS-T)) and blocked for 1 hr with blocking buffer (casein, 200 µL/well) at room temperature (RT). Plates are washed 3× with wash buffer, and binding proteins (as shown in Table 4) are added to individual wells at 10 μg/mL and serially diluted 1:3, at a volume of 100 uL/well in PBS-T. Plates are incubated at RT for 1 hr, and washed 3× with wash buffer. Biotin-Protein A at 0.5 ug/ml is added at 100 uL/well and plates are incubated for 1 hr at RT, washed 3×, and 100 uL/well of streptavidin labeled alkaline phosphatase (SA-AP) is added to each well. Plates are incubated 30 min at RT. Plates are then washed 3×, and 100 uL/well of p-Nitrophenyl Phosphate, Disodium Salt (PNAP)(Thermo Fisher Scientific) substrate is added. Reactions are stopped and optical density is measured using a colorimetric microplate reader set to 405 nm.

Test [3] concerns the target T4, Protein A. Kind of test: ELISA, antibody titrated on goat anti-human-kappa, Biotin-Protein A at 0.5 ug/ml. How it is done:
as §2

T1 sequence (Q15116 25-170): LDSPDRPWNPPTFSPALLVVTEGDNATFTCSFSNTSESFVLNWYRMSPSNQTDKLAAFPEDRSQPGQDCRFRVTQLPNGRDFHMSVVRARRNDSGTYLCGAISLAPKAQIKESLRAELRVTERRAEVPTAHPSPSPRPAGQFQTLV

B1: PD-1-TIGIT IgG1 heteromab (DKK on PD-1 light chain Fab region only) (bispecific antibody)
heavy 1: QVQLVQSGAEVKKPGSSVKVSCKASGGTFSSYAISWVRYAPGQGLEWMGLIIPSFDTAGYAQKFQGRVAITVDESTSTAYMELSSLRSEDTAVYYCARAEHSSTGTFDYWGRGTLVTVSSASTKGPSVFPLAPSSKSTSGGTAALGCLVADYFPEPVTVSWNSGALTSGVHTFPAVLQSSGLYSLASVVTVPSSSLGTQTYICNVNHKPSNTKVDERVEPKSCDKTHTCPPCPAPEAAGGPSVFLFPPKPKDTLMISRTPEVTCVVVDVSHEDPEVKFNWYVDGVEVHNAKTKPREEQYNSTYRVVSVLTVLHQDWLNGKEYKCKVSNKALAAPIEKTISKAKGQPREPQVYTLPPSREEMTDNQVSLTCLVKGFYPSDIAVEWESNGQPENNYKTTPPVLMSDGSFFLASKLTVDKSRWQQGNVFSCSVMHEALHNHYTQKSLSLSPGK
light 1: DIQMTQSPSSVSASVGDRVTITCRASQGISSWLAWYQRKPGDAPKLLISAASSLQSGVPSRFSGSGSGTDFTLTISSLQPEDFATYYCQQANHLPFTFGGGTKVEIKRTDAAPSVFIFPPSDKQLKSGTARVVCLLNNFYPRKAKVQWKVDNALQSGNSQESVTEQDSKDSTYSLISTLTLSKADYEKHKVYACEVTHKGLSSPVTKSFNRGEC
heavy 2: EVQLVESGGGLVQPGGSLRLSCAASGFDFSSYGVPWVRKAPGKGLEWVGYIDPIFGPTYYADEVKGRFTISADDSKNSLYLQMNSLKTEDTAVYYCARDYSYGYAYALDIWGQGTLVTVSSASTKGPSVFPLAPSSKSTSGGTAALGCLVKDYFPEPVTVSWNSGALTSGVHTFPAVLQSSGLYSLSSVVTVPSSSLGTQTYICNVNHKPSNTKVDKRVEPKSCDKTHTCPPCPAPEAAGGPSVFLFPPKPKDTLMISRTPEVTCVVVDVSHEDPEVKFNWYVDGVEVHNAKTKPREEQYNSTYRVVSVLTVLHQDWLNGKEYKCKVSNKALAAPIEKTISKAKGQPRRPRVYTLPPSREEMTKNQVSLVCLVKGFYPSDIAVEWESNGQPENNYKTTPPVLDSDGSFFLYSVLTVDKSRWQQGNVFSCSVMHEALHNHYTQKSLSLSPGK
light 2: RIVMTQTPLSLSVTPGQPASISCQASQRISPYLAWYLDKPGQPPQLLISRASKLASGVPDRFSGSGSGTDFTLKISRVEAEDVGVYYCQSYYVHTSSGYAFGGGTKVEIKRTVAAPSVFIFPPSDEQLKSGTASVVCLLNNFYPREAKVQWKVDNALQSGNSQESVTEQDSKDSTYSLSSTLTLSKADYEKHKVYACEVTHQGLSSPVTKSFNRGEC
notes: also called PD-1-Tigit IgG1 heteromab (with DKK LC Fab region on PD-1 arm only)
For the molecule B1, the EC50 in the test with human PD-1-ECD was found to be 10.8 pM. The molecule also yielded an EC50 in the test with human TIGIT-ECD of 45.4 pM. Further, in test [1], the “% Elution” value amounted to 80.7% and the “% Flow Through (FT)” value amounted to 19.3%.

B2: PD-1-TIGIT IgG1 heteromab (KK on PD-1 light chain Fab region only) (bispecific antibody)
heavy 1: QVQLVQSGAEVKKPGSSVKVSCKASGGTFSSYAISWVRYAPGQGLEWMGLIIPSFDTAGYAQKFQGRVAITVDESTSTAYMELSSLRSEDTAVYYCARAEHSSTGTFDYWGRGTLVTVSSASTKGPSVFPLAPSSKSTSGGTAALGCLVADYFPEPVTVSWNSGALTSGVHTFPAVLQSSGLYSLASVVTVPSSSLGTQTYICNVNHKPSNTKVDERVEPKSCDKTHTCPPCPAPEAAGGPSVFLFPPKPKDTLMISRTPEVTCVVVDVSHEDPEVKFNWYVDGVEVHNAKTKPREEQYNSTYRVVSVLTVLHQDWLNGKEYKCKVSNKALAAPIEKTISKAKGQPREPQVYTLPPSREEMTDNQVSLTCLVKGFYPSDIAVEWESNGQPENNYKTTPPVLMSDGSFFLASKLTVDKSRWQQGNVFSCSVMHEALHNHYTQKSLSLSPGK
light 1: DIQMTQSPSSVSASVGDRVTITCRASQGISSWLAWYQRKPGDAPKLLISAASSLQSGVPSRFSGSGSGTDFTLTISSLQPEDFATYYCQQANHLPFTFGGGTKVEIKRTVAAPSVFIFPPSDKQLKSGTARVVCLLNNFYPRKAKVQWKVDNALQSGNSQESVTEQDSKDSTYSLISTLTLSKADYEKHKVYACEVTHKGLSSPVTKSFNRGEC
heavy 2: EVQLVESGGGLVQPGGSLRLSCAASGFDFSSYGVPWVRKAPGKGLEWVGYIDPIFGPTYYADEVKGRFTISADDSKNSLYLQMNSLKTEDTAVYYCARDYSYGYAYALDIWGQGTLVTVSSASTKGPSVFPLAPSSKSTSGGTAALGCLVKDYFPEPVTVSWNSGALTSGVHTFPAVLQSSGLYSLSSVVTVPSSSLGTQTYICNVNHKPSNTKVDKRVEPKSCDKTHTCPPCPAPEAAGGPSVFLFPPKPKDTLMISRTPEVTCVVVDVSHEDPEVKFNWYVDGVEVHNAKTKPREEQYNSTYRVVSVLTVLHQDWLNGKEYKCKVSNKALAAPIEKTISKAKGQPRRPRVYTLPPSREEMTKNQVSLVCLVKGFYPSDIAVEWESNGQPENNYKTTPPVLDSDGSFFLYSVLTVDKSRWQQGNVFSCSVMHEALHNHYTQKSLSLSPGK
light 2: RIVMTQTPLSLSVTPGQPASISCQASQRISPYLAWYLDKPGQPPQLLISRASKLASGVPDRFSGSGSGTDFTLKISRVEAEDVGVYYCQSYYVHTSSGYAFGGGTKVEIKRTVAAPSVFIFPPSDEQLKSGTASVVCLLNNFYPREAKVQWKVDNALQSGNSQESVTEQDSKDSTYSLSSTLTLSKADYEKHKVYACEVTHQGLSSPVTKSFNRGEC
notes: also called PD-1-Tigit IgG1 heteromab (with KK LC Fab region on PD-1 arm only)
On to B2, for which the EC50 with human PD-1-ECD was 9.3 pM. This molecule also showed an EC50 in the test with human TIGIT-ECD of 18.2 pM. In test [1], the “% Elution” value was found to be 74.8% and the “% Flow Through (FT)” value worked out at 25.2%.

B3: cMet-BAH10 IgG1 heteromab (RE on cMet heavy chain Fc region only) (bispecific antibody)
heavy 1: EVQLVESGGGLVQPGGSLRLSCAASGYTFTSYWLHWVRKAPGKGLEWVGMIDPSNSDTRFNPEFKDRFTISADTSKNTAYLQMNSLRAEDTAVYYCATYRSYVTPLDYWGQGTLVTVSSASTKGPSVFPLAPSSKSTSGGTAALGCLVKDYFPEPVTVSWNSGALTSGVATGPAVLQSSGLYSLSSVVTVPSSSLGTQTYICNVNHKPSNTKVDKKVEPKSCDKTHTCPPCPAPEAAGGPSVFLFPPKPKDTLMISRTPEVTCVVVDVSHEDPEVKFNWYVDGVEVHNAKTKPREEQYNSTYRVVSVLTVLHRDWLNGEEYKCKVSNKALPAPIEKTISKAKGQPREPQVYTLPPSREEMTDNQVSLTCLVKGFYPSDIAVEWESNGQPENNYKTTPPVLMSDGSFFLASKLTVDKSRWQQGNVFSCSVMHEALHNHYTQKSLSLSPGK
light 1: RIQMTQSPSSLSASVGDRVTITCKSSQSLLYTSSQKNYLAWYQDKPGKAPKLLIYWASTRESGVPSRFSGSGSGTDFTLTISSLQPEDFATYYCQQYYAYPWTFGQGTKVEIKRTVAAPSVFIFPPSDEQLKSGTASVVCYLNNFYPREAKVQWKVDNALQSGNSQESVTEQDSKDSTYSLWSTLTLSKADYEKHKVYACEVTHQGLSSPVTKSFNRGEC
heavy 2: QVQLVQSGAEVKKPGSSVKVSCKASGYTFTTYYLHWVRYAPGQGLEWMGWIYPGNVHAQYNEKFKGRVTITADKSTSTAYMELSSLRSEDTAVYYCARSWEGFPYWGRGTTVTVSSASTKGPSVFPLAPCSKSTSGGTAALGCLVKDYFPEPVTVSWNSGALTSGVHTFPAVLQSSGLYSLSSVVTVPSSSLGTQTYICNVNHKPSNTKVDKKVEPDSGDKTHTCPPCPAPEAAGGPSVFLFPPKPKDTLMISRTPEVTCVVVDVSHEDPEVKFNWYVDGVEVHNAKTKPREEQYNSTYRVVSVLTVLHQDWLNGKEYKCKVSNKALPAPIEKTISKAKGQPRRPRVYTLPPSREEMTKNQVSLVCLVKGFYPSDIAVEWESNGQPENNYKTTPPVLDSDGSFFLYSVLTVDKSRWQQGNVFSCSVMHEALHNHYTQKSLSLSPGK
light 2: DIQMTQSPSSLSASVGDRVTITCKASQNVGINVAWYQRKPGDAPKSLISSASYRYSGVPSRFSGSGSGTDFTLTISSLQPEDFATYFCQQYDTYPFTFGQGTKVEIKRTVAAPSVFIFPPSKEQLKSGTASVVCLLNNFYPREAKVQWKVDNALQSGNSQESVTEQDSKDSTYSLSSTLTLSKADYEKHKVYACEVTHQGLSSPVTKSFNRGEC
notes: also called cMet-BAH10 IgG1 heteromab (with RE HC Fc format on cMet arm only)
For B3, the “fold decrease in binding against cMet-BAH10 IgG1 heteromab” value with Protein A [2] is around 1.2 fold. In the test with Protein A [3], this molecule returned a concentration for a half-maximal effect (EC50) of 560 pM.

B4: cMet mAb (RE on both HCs) (antibody, human IgG1, kappa, L234A L235A)
heavy: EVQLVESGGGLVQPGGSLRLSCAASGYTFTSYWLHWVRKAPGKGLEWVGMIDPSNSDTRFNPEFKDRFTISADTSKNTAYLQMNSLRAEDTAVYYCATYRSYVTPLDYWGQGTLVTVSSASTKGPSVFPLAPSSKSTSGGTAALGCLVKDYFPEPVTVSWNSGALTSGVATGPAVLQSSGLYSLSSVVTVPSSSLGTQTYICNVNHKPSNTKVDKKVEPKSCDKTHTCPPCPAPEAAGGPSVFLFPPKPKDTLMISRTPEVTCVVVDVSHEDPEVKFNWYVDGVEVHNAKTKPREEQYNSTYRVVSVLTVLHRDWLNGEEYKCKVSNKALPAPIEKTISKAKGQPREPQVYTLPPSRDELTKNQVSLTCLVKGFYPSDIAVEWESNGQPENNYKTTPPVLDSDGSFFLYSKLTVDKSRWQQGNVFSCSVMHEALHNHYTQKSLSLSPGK
light: RIQMTQSPSSLSASVGDRVTITCKSSQSLLYTSSQKNYLAWYQDKPGKAPKLLIYWASTRESGVPSRFSGSGSGTDFTLTISSLQPEDFATYYCQQYYAYPWTFGQGTKVEIKRTVAAPSVFIFPPSDEQLKSGTASVVCYLNNFYPREAKVQWKVDNALQSGNSQESVTEQDSKDSTYSLWSTLTLSKADYEKHKVYACEVTHQGLSSPVTKSFNRGEC
notes: IgG1 / kappa; also called cMet parental mAb (with RE HC Fc format on both HCs)
B4: in the test with Protein A [2], the “fold decrease of binding affinity against parental” value is around 2 fold. Moreover, a half-maximal response in the test with Protein A [3] (EC50) required 980 pM.
